# From patent publication US20040097454A1, “Method for modulation of cell phenotype” (University Technology Corporation, priority 1999, published 2004)
# B1: VP16-CREB: constitutively active fusion protein: VP16 transactivation domain (aa 412-490) linked to CREB DNA binding domain (aa 217-327), SEQ ID NO:6 (protein, listed as Homo sapiens)
# chain: MAPKKKRKVPGVPSSNCIDTAPPTDVSLGDELHLDGEDVAMAHADAHDDFDLDMLGDGDSPGPGFTPHDSAPYGALDMADFEFEQMFTDALGIDEYGGIDWILVPSNQVVVQAASGDVQTYQIRTAPTSTIAPGVVMASSPALPTQPAEEAARKREVRLMKNREAARECRRKKKEYVKCLENRVAVLENQNKTLIEELKALKDLYCHKSZ
# Legend:
# [1] = tested on: CREluc reporter in HEK cells; assay: CREluc reporter in HEK cells transfected with CREB constructs; format: cell-based; settings: transient transfection of adenoviral expression plasmids
# Text: CDNA for KCREB, CREB DIEDML and VP16CREB were cloned into adenoviral expression vectors as described previously herein. The plasmids were transiently transfected into HEK cells to assess their impact upon a cotransfected CREluc reporter construct. […] Transfected cells were also lysed and CREB protein content and Flag content assayed Western analysis. All proteins were highly expressed in HEK cells (data not shown).
# 3T3-L1 cells = assay: 3T3-L1 cell proliferation (Cell-Titer 96 Aq); format: cell-based; settings: muristerone-treated versus control clones, 72 hours
# Protocol: 3T3-L1 fibroblasts were passaged and treated with differentiation-inducing agents as previously described (Klemm et al., 1998, J. Biol. Chem., 273:917-923), incorporated herein by reference in its entirety. Plates of 3T3-L1 fibroblasts and adipocytes were grown to 70-80% confluency and transfected with the above-described plasmids with Superfect Reagent (Oiagen, Valencia, Calif.) according to the manufacturer's recommendations. Cells stably transfected with the plasmid, pVgRXR were selected for in conventional medium containing 500 ug/mi Zeocin, and cells stably transfected with pIND-VP16-CREB, pIND-KCREB or pIND-LacZ plasmids were selected for in medium containing 500 ug/ml Geneticin. Large, rapidly growing, well separated colonies were isolated 10 to 12 days after selection was begun with either antibiotic. […] The effect of VP16-CREB and KCREB expression on 3T3-L1 proliferation was assessed by measuring cell number with the Cell-Titer 96 Aq reagent system (Promega Corp., Madison, Wis.).
# Two possible mechanisms by which CREB could potentiate adipose differentiation would be by increasing cell proliferation related to clonal expansion, or by inhibiting cell growth as a prelude to terminal differentiation. To examine these possibilities, changes in the rate of cell growth in control versus muristerone-treated VP16-CREB and KCREB expressing clones was measured.
# BASMC = assay: Transient VP16CREB transfection in BASMC, phenotype; format: cell-based, bovine; settings: preliminary transient transfections
# Text: It is expected that dominant negative CREB and sense ICER will lead to SMC phenotypic modulation. If the dose delivered overwhelms the cells, apoptosis may occur. Assays to confirm or deny the induction of apoptosis are readily available in the lab in conjunction with the neurodegeneration REAP. Overexpression of WT CREB is likely to promote a differentiated phenotype. The present inventors have already provided data above showing arrest of cell cycle and decreased migration with CREB overexpression. The constitutively active CREB could induce ICER and promote dedifferentiation, promote proliferation by driving immediate early genes, or maintain the mature phenotype. Adenoviral overexpression of constitutively active signaling elements can lead to non-physiological protein interactions. […] The dominant negative CREB and ICER overexpression experiments will be the most informative for the question of how CREB down-regulation impacts phenotype.
# [2] = tested on: NIH 3T3-L1 preadipocyte cell lines; assay: Adipocyte differentiation assay, Oil Red O staining of triacylglycerol; format: cell-based; settings: muristerone-induced expression alone, no differentiation agents, 10 days
# Protocol: Differentiation assays were performed on cells growing on 8 chamber microscope slides. […] The cells were treated with a differentiation mixture, muristerone, or both. […] Muristerone was added to medium at a final concentration of 10 uM for the entire 10 day differentiation period. After 10 days in culture, the cells were stained with Oil Red 0 to visualize triacylglycerol vesicles as previously described (Klemm et al., 1998, J. Biol. Chem., 273:917-923), and counterstained with hematoxylin to visualize cell morphology. Cells were observed by brightfield microscopy and representative fields, were photographed.
# [3] = tested on: PPARγ2 and FABP expression in 3T3-L1 cell lines; assay: Expression of adipocyte-specific markers PPARγ2 (Western) and FABP (RNA blot); format: cell-based; settings: muristerone-treated VP16-CREB cell lines, absence of other differentiation-stimulating agents
# Protocol: In this experiment, control, VP16-CREB and KCREB expressing cells lines were grown and treated as above. On days 0 and 10 of the experiment, whole cell lysates and total RNA were prepared from duplicate wells of cells. Approximately 25 ug of protein in the cell lysates (lysed directly on multiwell slides in SDS gel loading buffer) was separated on 10% polyacrylamide-SDS gels and transferred to nitrocellulose blots. The blots were probed with a polyclonal antibody to PPARγ2, and the specific PPARγ2 band is indicated by an * in the top row of blots (FIG. 3).
# Similarly, 10 ug of total RNA was separated on 1% denaturing (formaldehyde) agarose gels run at 5 V/cm until the Bromophenol Blue tracking dye had migrated half the length of the gel. The gels were soaked in several changes of distilled water, overnight at 4° C., and stained with ethidium bromide and briefly examined in ultraviolet light to insure RNA integrity and equivalent RNA amounts in each lane. The gels were destained in several changes of 5× sodium chloride/sodium citrate (SSC) buffer. RNA was transferred onto nitrocellulose membranes. The resulting blots were heated to 80° C. under vacuum for two hours. The membranes were blocked for 30 minutes at 70° C., and then a biotin-labeled FABP-specific oligonucleotide probe (250 fg/ml) was added for an additional 30 min. […]
# [4] = tested on: PEPCK gene promoter in NIH 3T3-L1 clonal cell lines; assay: Truncated CRE-containing PEPCK promoter luciferase reporter (-109 pPC-Luc) in 3T3-L1 clones; format: cell-based; settings: VP16-CREB clones 2-4 and 9-7; muristerone; versus untreated cells
# Protocol: To test the ability of KCREB and VP16-CREB expression to influence gene transcription, a plasmid containing a truncated, CRE-containing portion of the phosphoenolpyruvate carboxykinase (PEPCK) gene promoter linked to a luciferase reporter gene (−109 pPC-Luc) was transfected into each of the clones. […] Four hours later cell lysates were prepared and luciferase activity measured as an index of transcriptional activity. Levels are shown relative to levels of luciferase activity in untreated, control cells (No Add'n).
# [5] = tested on: PEPCK, FABP and FAS gene promoters in 3T3-L1 fibroblasts; assay: Full length PEPCK, FABP and FAS promoter luciferase reporters in 3T3-L1 fibroblasts; format: cell-based; settings: relative to untreated cells
# Protocol: Control, VP16-CREB or KCREB inducibly expressing 3T3-L1 fibroblasts were transfected with plasmids containing the full length promoters of the PEPCK, FABP or FAS genes linked to luciferase. The cells were cotransfected with the internal control plasmid, pRSV-pGal. […] Cell lysates were then prepared, and luciferase activity measured as an index of transcriptional activity. Levels of transcription are shown relative to levels measured in untreated cells for each promoter tested, and were corrected for transfection efficiency.
molecule,measurement,setting,value
B1,CREluc reporter luciferase expression,[1],strongly drive the reporter
same,rate of cell proliferation,3T3-L1 cells,No significant differences in the rate of cell proliferation
same,SMC phenotype,BASMC,phenotypic changes consistent with increased differentiation
same,triacylglycerol accumulation and cell morphology (Oil Red O),[2],sufficient to induce triacylglycerol accumulation and rounded cell morphology
same,"PPARγ2 and FABP expression, day 10",[3],easily detected
same,"luciferase production from the PEPCK promoter fragment, stimulation",[4],3.5 to 4 fold
same,"transcription (luciferase) from full-length PEPCK, FABP and FAS promoters",[5],stimulated
